{
  "source": "patent US8003357B2",
  "about": "“Acidophilic enzymes” (Helmholtz-Zentrum Fuer Infektionsforschung GmbH, priority 2005, dated 2011)",
  "key": {"[1]": {"substrate": "CCCC(=O)OCC(COC(=O)CCC)OC(=O)CCC", "experiment": "EstFA hydrolysis of p-nitrophenol esters and triglycerides", "assay_type": "biochemical, Ferroplasma acidiphilum", "settings": "other: EstFA expressed in E. coli", "experimental": "(§1) Hydrolysis of p-nitrophenol propionate was observed spectrophotometrically at 405 nm, optionally in and 96-well plates. The substrate specificity of acidic esterase EstFA obtainable from Ferroplasma acidiphilum was characterized using the heterologously expressed EstFA of Example 6 (expressed in E. coli), using p-nitrophenol esters and triglycerides as summarised in following Table IV:\n(§2) The above substrate specificities were tested in 96-well plates, using 100 mM citrate buffer (pH 2.0) in the presence of 5 μg pure EstFA. For the substrate, the concentrations between 10 nM and 10 mM were chosen. Progress of the reaction was followed by spectrophotometry using p-nitrophenol propionate as an indicator. The reaction was stopped after 10 hours by adjusting the pH to 8.0 by adding sodium hydroxide from a 100 mM stock solution and phenol red (0.8 mM) as a pH indicator. Activities and selectivities were examined according to Mam Fai Lui et al. (2001). Ester hydrolysis of enantiomerically pure esters was measured colorimetrically in 5.0 mM EPPS buffer (N-(2-hydroxyethyl) piperazine-N′-(3′-propanesulfonic acid) at pH 8.0 and phenol red after termination of the reaction."}, "[2]": {"substrate": "CCCCCCCCCC(=O)Oc1ccc([N+](=O)[O-])cc1", "experiment": "EstFA hydrolysis of p-nitrophenol esters and triglycerides", "assay_type": "biochemical, Ferroplasma acidiphilum", "settings": "other: EstFA expressed in E. coli", "experimental": "as §1, §2"}, "[3]": {"substrate": "CCCC(=O)Oc1ccc([N+](=O)[O-])cc1", "experiment": "EstFA hydrolysis of p-nitrophenol esters and triglycerides", "assay_type": "biochemical, Ferroplasma acidiphilum", "settings": "other: EstFA expressed in E. coli", "experimental": "as §1, §2"}, "[4]": {"substrate": "CCC(=O)Oc1ccc([N+](=O)[O-])cc1", "experiment": "EstFA hydrolysis of p-nitrophenol esters and triglycerides", "assay_type": "biochemical, Ferroplasma acidiphilum", "settings": "other: EstFA expressed in E. coli", "experimental": "as §1, §2"}, "[5]": {"substrate": "CC(=O)Oc1ccc([N+](=O)[O-])cc1", "experiment": "EstFA hydrolysis of p-nitrophenol esters and triglycerides", "assay_type": "biochemical, Ferroplasma acidiphilum", "settings": "other: EstFA expressed in E. coli", "experimental": "as §1, §2"}, "[6]": {"substrate": "CCCCCCCCCCCC(=O)Oc1ccc([N+](=O)[O-])cc1", "experiment": "EstFA hydrolysis of p-nitrophenol esters and triglycerides", "assay_type": "biochemical, Ferroplasma acidiphilum", "settings": "other: EstFA expressed in E. coli", "experimental": "as §1, §2"}, "[7]": {"substrate": "CCCCCCCC(=O)Oc1ccc([N+](=O)[O-])cc1", "experiment": "EstFA hydrolysis of p-nitrophenol esters and triglycerides", "assay_type": "biochemical, Ferroplasma acidiphilum", "settings": "other: EstFA expressed in E. coli", "experimental": "as §1, §2"}, "[8]": {"experiment": "Fe2+ content (ICP-MS) and Fe2+ dependence of activity, dialysis against EDTA", "assay_type": "biochemical", "settings": "relative to wild type = 100; after dialysis against 1 mM EDTA; 100 mM sodium citrate, 10 mM FeCl2", "experimental": "The UV-VIS absorption spectra of purified acidic enzymes are shown in FIG. 4, wherein the uninterrupted lines refer to Fe^2+ containing enzymes and the interrupted lines refer to enzymes after dialysis against EDTA containing buffer. The λ-max values found at ca. 572 nm correlate with the Fe^2+ content, i.e. disappear after incubation with EDTA or DTT for 24 h. ICP-MS analysis confirmed the presence of 0.82±0.10 mol Fe in EstFA, 0.34±0.08 mol Fe in αGluFA, […] and 0.63±0.09 mol Fe in LigFA.\nIn FIG. 5, relative activities of acidic enzymes with varying content of Fe^2+ are shown. For analysis, purified enzymes were incubated in 1 mM EDTA. At time intervals indicated, two aliquots were removed, one was used for hydrolysis of respective substrates, the other for ICP-MS analysis of Fe. For relative activities, activities before incubation with EDTA were used as 100% values.\nWhen further investigating the dependence of the acidic enzymes according to the invention on Fe^2+, relative activity for EstFA, αGluFA and LigFA were investigated for their natural Fe^2+ content, e.g. wild-type, which was set to 100%, in comparison to the activity after dialysis against a 1 mM EDTA containing buffer."}, "[9]": {"experiment": "pH and temperature dependence, stability and activity of recombinant acidic enzymes", "assay_type": "biochemical", "experimental": "The acidic enzymes according to the invention were expressed in E. coli using the genomiccoding sequence for the respective enzyme from Ferroplasma acidiphilum, which are described in detail below. For enzymatic conversions, reaction conditions were in 100 mM sodium acetate buffer, 100 mM citrate buffer, 100 mM HEPES buffer for 2 minutes at 30° C., using p-nitrophenol propionate as the substrate for esterase, starch in the case of glycosidases, and HindIII digested λ DNA for ligase.\nThe activity was assayed using p-nitrophenol propionate as a substrate for esterase, starch for αGluFA and GlyFA1, GlyFA2, and HindIII digested λ DNA for LigFA.\nThe acidic enzymes according to the invention in vitro show similar elevated reaction temperatures. Substrates were as described for FIG. 2 above.\nAn overview of catalytic and molecular properties of acidic enzymes that were heterologously expressed in E. coli is given in the following Table III: […]"}, "[10]": {"system": "5′ phosphorylated oligonucleotides; Sau3A digested λ DNA", "experiment": "DNA ligation using LigFA", "assay_type": "biochemical", "settings": "40° C.", "experimental": "For DNA ligation, double-stranded DNA fragments, each comprising a complementary 3′ overhang which were phosphorylated in 5′ can be ligated in a total volume of 20 μL ligation buffer (100 mM Na-citrate, pH 3.0, 10 μM Fe^2+, 0.01-0.1 mM ATP, optionally 0.5 mM dithiothreitol), 0.1-5 micrograms DNA and 1 to 20 nmoles ligase. The reaction conditions are 40° C. for 5 minutes to 2 hours, the reaction can be stopped by the addition of stop buffer 98% (vol/vol) formamide, 10 mM EDTA, 0.05% bromophenol blue, 0.05% xylene cyanol, 0.2% SDS), followed by heating to 95° C. for 5 minutes or, alternatively, by adding stop/loading buffer (30% sucrose, 150 mM EDTA, 0.15% SDS, 0.03% bromophenol blue), and heating to 90° C. for 2 minutes.\nOligonucleotides were phosphorylated in 5′.\nReactions were carried out in different buffers: HEPES, pH 7.0 (lane 1), HEPES, pH 6.0 (lane 2), sodium acetate, pH 5.0 (lane 3), sodium acetate, pH 4.0 (lane 4), sodium citrate, pH 3.0 to 0.5 (lanes 5 to 9, respectively). For detection of ligation, gel electrophoresis on a 10% denaturing polyacrylamide gel containing 7 M urea in TBE buffer (90 mM Tris-borate, 2.5 mM EDTA), staining with ethidium bromide. A densitometric reproduction of the gel region containing 60 base fragments is represented in FIG. 7. […]"}, "TOP 2 fragmented DNA": {"system": "TOP 2 fragmented DNA", "experiment": "Religation of topoisomerase 2 induced DNA breaks", "assay_type": "biochemical", "settings": "LigFA pH 4.0 to 2.0; T4 ligase acidic pH values; FIG. 9", "experimental": "For a comparison of the religation activities of acidic LigFA to T4 ligase on DNA containing breaks caused by topoisomerase 2 (TOP 2), ligation activities were determined in vitro at various pH values. The results are shown in the non-denaturing agarose gel of FIG. 9.\nDNA was incubated with TOP 2 to induce DNA damage. At pH 5.0, TOP 2 caused DNA breaks (lane 2) but not at pH 3.0 (lane 3)."}},
  "data": [
    {"molecule": "EstFA (Ferroplasma acidiphilum) (protein) MHLMNMVDPDFNSLIELSKSAGDMTKIEPAMLRNFLDESSLSSRGAPVEIKEIKDYKIKLDGRTLNARMYDDNNAKSAILYYHGGGFLFGNIETYDNYCRFLAKESGVKIISIEYRLAPEHKFPDAFNDAYDSFHYIAKKKKDFGIEGRIGVAGDSAGANLAAALCLKCRDGKTEMPAVQVLFYPSLAPDNFSRSFIEYSDNYVLTGKMIRYFGNMYSKNMQDLINPYFSPLVADDFSNLPPAIMVTNEYDPLRDPEETYVKKLREAGVRAVGIRGIGMIHGSATDFEVSDGARNIVKMVARIIPDYL", "values": [
      {"measurement": "Km", "setting": "[1]", "result": "1.75 ± 0.14", "unit": "mg/mL"},
      {"measurement": "kcat", "setting": "[1]", "result": "1890 ± 27", "unit": "s⁻¹"},
      {"measurement": "Km", "setting": "[2]", "result": "4.30 ± 0.42", "unit": "mg/mL"},
      {"measurement": "kcat", "setting": "[2]", "result": "179 ± 4", "unit": "s⁻¹"},
      {"measurement": "Km", "setting": "[3]", "result": "1.75 ± 0.12", "unit": "mg/mL"},
      {"measurement": "kcat", "setting": "[3]", "result": "2300 ± 30", "unit": "s⁻¹"},
      {"measurement": "Km", "setting": "[4]", "result": "0.20 ± 0.04", "unit": "mg/mL"},
      {"measurement": "kcat", "setting": "[4]", "result": "1190 ± 25", "unit": "s⁻¹"},
      {"measurement": "Km", "setting": "[5]", "result": "0.39 ± 0.08", "unit": "mg/mL"},
      {"measurement": "kcat", "setting": "[5]", "result": "860 ± 21", "unit": "s⁻¹"},
      {"measurement": "Km", "setting": "[6]", "result": "4.41 ± 0.38", "unit": "mg/mL"},
      {"measurement": "kcat", "setting": "[6]", "result": "120 ± 4", "unit": "s⁻¹"},
      {"measurement": "Km", "setting": "[7]", "result": "1.68 ± 0.12", "unit": "mg/mL"},
      {"measurement": "kcat", "setting": "[7]", "result": "239 ± 12", "unit": "s⁻¹"}
    ]},
    {"molecule": "LigFA: DNA ligase obtainable from Ferroplasma acidiphilum, 595 amino acids, Seq. ID No. 3, Fe2+ dependent (protein, listed as Ferroplasma acidiphilum, CDS (1)..(927) est FA, ID No. 3, Fe2+ dependent) MHLMNMVDPDFNSLIELSKSAGDMTKIEPAMLRNFLDESSLSSRGAPVEIKEIKDYKIKLDGRTLNARMYDDNNAKSAILYYHGGGFLFGNIETYDNYCRFLAKESGVKIISIEYRLAPEHKFPDAFNDAYDSFHYIAKKKKDFGIEGRIGVAGDSAGANLAAALCLKCRDGKTEMPAVQVLFYPSLAPDNFSRSFIEYSDNYVLTGKMIRYFGNMYSKNMQDLINPYFSPLVADDFSNLPPAIMVTNEYDPLRDPEETYVKKLREAGVRAVGIRGIGMIHGSATDFEVSDGARNIVKMVARIIPDYL", "values": [
      {"measurement": "activity, +EDTA", "setting": "[8]", "result": 0.15, "unit": "%"},
      {"measurement": "enzymatic stability at elevated temperatures", "setting": "[9]; FIG. 2, LigFA pH 3.0, EstFA and αGluFA pH 2.0 at 40 and 50° C., GlyFA1 and GlyFA2 pH 4.0 at 40° C.", "result": "good stability"},
      {"measurement": "Optimum temperature", "setting": "[9]; measured at optimum pH", "result": 40, "unit": "°C"},
      {"measurement": "Optimum pH", "setting": "[9]; measured at optimum temperature", "result": "1.5-3.0"},
      {"measurement": "ligation of Sau3A digested λ DNA", "setting": "[10]; 20 nM LigFA, 2 hours", "result": "demonstrates ligation"},
      {"measurement": "ligation of two oligonucleotides (35 and 25 bases) on a 70 base oligonucleotide", "setting": "[10]; 20 nM ligFA, 5 minutes", "result": "ligation was obtained"},
      {"measurement": "religation of TOP 2 fragmented DNA at acidic pH", "setting": "TOP 2 fragmented DNA", "result": "clearly demonstrated"}
    ]}
  ]
}
